# Experimental data taken from the nanobody polyreactivity screen of Harvey et al. (2022).
# Assay: yeast display, Sf9 membrane polyspecificity reagent, FACS + sequencing; frameworks hold sequencing errors
# How it was run: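 Galactose-induced (36–48 hours) yeast carrying a synthetic nanobody display library were exposed to 10% biotinylated, detergent-solubilized Sf9 membrane reagent at 4 °C for 1 hour. FACS followed streptavidin microbead enrichment, using low and high (top ~1%) gates for expression (anti-HA) and reagent binding (streptavidin). Colony PCR, MiSeq 2 × 250 sequencing and CDR-length filtering followed. Labels for polyreactivity reflect the gate of origin.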
row,Sequence,polyreactivity (PSR sort gate)
1,QVQLVESGGGLVQAGGSLRLSCAASGRTLSVYAMGWYSQAPGKEMEFVAAISFSGGSTYYADSVKGRFTISRDNAKNTVYLQMNSQKPEDTAVYYCATAYPEFLSTTVGLLYLDDYWGQGTQVTVSS,low polyreactivity
2,QVQLVESGGGLVQAGGSLRLSCAASGSTFYKYGMGWYRQAPGKERELVAAISGSGDSTYYADSVKGRFTISRDNAKNTVYLQMNSLKPEDTAVYYCNAGPWWYLHEYDYWGQGTQVTVSS,low polyreactivity
3,QVQLVESGGGLVQAGGSLRLSCAASGLTFTSYAMGWYRQAPGKERELVAAITAGGVSTYYADSEKGRFTISRDNAKNTVYLQMNSLKPEDTAVYYCAVDPPYSNPITINEDYWGQGTQVTVSS,low polyreactivity
4,QVQLVESGGGLVQARGSLRLICAASGSTFWYYAKGWYRQAPGKERELVAAITSGDSTYYADSVKGRFTISRDNAKNTVYLQMNSLKPEDTAVYYCAADLPWEDGYYYYSGYTEYDYWGQGTQVTVSS,low polyreactivity
5,QVQLVESGGGLVQAGGSLRLSCAASGRISLYAMGWYRQAPGKEREMVAAINGRGGNTYYADSVKGRFTISRDNAKNTVYLQMNSLKPEDTAVYYCNAVTVNGPYGYDYWGQGTQVTVSS,high polyreactivity
6,QVQLVESGGGLVQAGGSLRLSCADSGRTFYYYAMGWYRQAPGKEREFVAAITTRGGSTYYADSVKGRFTISRDNAKNTVYLQMNSLTPEDTAVYYCAARYTGRQGVYKTYYYWGQGTQVTVSS,high polyreactivity
7,QVQLVESGGGLVQAGGRLRLSCAASGSIIHYYTMGWSRQAPGKERELVAAINWSGTRTYYADSVKGRFTISRDNAKNTVYLQMNSLKPEDTAVYYCAAESYYPAGIRVYWGQGTQVTVSS,high polyreactivity
8,QVQLVESGGGLVQAGGSLRLSCAASGLTFSLYAMGWYRQAHGKERELVAAISWTGGSTYYADSVKGRFTISRDNAKNTVYLQMNSLKPEDTAVYYCNARYTLFARYGYDYWGQGTQVTVSS,low polyreactivity
9,QVKLVESGGGLVQAGGSLRLICAASGRIFVPYAMGWNRQAPWKETELFAAISRSGGSTYYADSVKGRFTISRDNAKNTVYLQMNSLKTEETAVYYCAVYYRRYKEYGYNYWGQGTEVTVSS,high polyreactivity
10,QVQLVESGGGLVQAGGSLRLSCAASGTIFVPYAMGWYRQAPGKERELVAVITSGGSTYYADSVKGRFTISRDNAKNTVYLQMNSLKPEDTAVYYCNADLYYVWSTLSQFDYWGQGTQVTVSS,low polyreactivity
11,QVQLVESGGGLVQAGGRLRLSCAASGRIFSYAMGWYRHAPGNERELVGGISRSGGSTYYADSVKGRFTISRDNAKNTVYLQMNSQKPVDTAVYYCAADSSLSASEYDSWGQGTQVTVSS,high polyreactivity
12,QVQLVESGGGLVQAGGSLRLSCAASGRTLATYAMGWYRQAPGKERELVADISWRGGTTYYADSVKGRFTISRDNAKNTVYLQMNSLKPEDTAVYYCAAVRKQGSGFDYWGQGTQVTLSS,high polyreactivity
13,QVQLVESGGGLVQVGCSLRLSCAASGFTFYNNVMGWYRQAPGKERELVAAITSTGSTSYADSVKGRFTISRDNAKNTVYLQMNSLKPEDTAVVYCARAYYYLLGGHYRHKYYWGQGTQVTVSS,high polyreactivity
14,QVQLVDSCGGLVQAGGSLRLSCYDSGSTFPYKAMGWYRQAPGKERELVAAITSGASTNYADSVKGRFTISRDNAKNTVYLQMNSLTPEDTAVYYCAAQSYGKRIWSPRFQLNYWGQGTQVTVSS,low polyreactivity
15,QVQLVESGGCLVQAGGRLRLSCAASGLTLYKNGMGWYRQAPGKERELVAVISRSGGRTYYADSVKGRFTISRDNAKNTVFLHMNSLKPEDTAVYYCAALQYGPRYTYYYWGQGTQVTVSS,high polyreactivity
16,QVQLVESGGGLVQAGGSLRLSCAASGRIFPGYGMGWYRQAPGKERELVASISVGGGSTYYADSVKGRFTISRDNAKNTVYLQMNSLKPEDTAVYYCAADPSPYGDEYDYWGQGTQVTVSS,low polyreactivity
17,QVQLVESGGGLVQAGGRLRLSCAASGFTLTRNAMGWYRQAPGKERELVAAISWSGGTTYYADSVKGRFTISRDNAKNTVYLQMNSLKPEDTAVYYCNTASLRAHYYYWGQGTQVTVSS,high polyreactivity
18,QVQLLESGGGLVQAGGSLRLSCAASGLIFRGNDMGWYRPAPGKERELVAGINSSGSTNYADSVKGRFTISRDNAKNTVYLQMNSLKPEDTAVYDCAARAIVSFDYWGQGTQVTVSS,low polyreactivity
19,QVQLVDSGGGLVQAGGSLRLSCAASGRIFWHNAMGWYRQAPGKERELVAAITGGGSTYYADSVKGRFTMSRVNAKNTVYLQKNSLIPEDTAVYYCATLGSLRYYWPGYDYWGQGTQVTVSS,low polyreactivity
20,QVQLVESGGGLVQAGGSLRLSCAASGSIIRKYAMGCYRPAPGKERELVAAITSGGRTYYADSVKGRFTISRDNAKNTVYLQMNSLKPEDTAVYYCNARVRGYYEYNYWGQGTQVTVSS,high polyreactivity
21,QVQLVESGGGLVQAGGSLRLSCAASGSTFGRNAMGWYRQAPGKERELVATITKSGGSTYYADSVKGRFTISRDNAKNTVYLQMNSLKPEDTAVYYCAKGVYYKVLRGGGDYWGQGTQVTVSS,high polyreactivity
22,QVQLVEAGGGLVQAGGSLRLSCATSGGIFPPNAMGWYRQAPGKERELVASISSDGSTNYADSVKGRFTISRDNAKNTFYLQMISLKPEDTAVYFCAADSTTTWARLHVRRYYYWGQGTQVTVSS,low polyreactivity

row,Sequence,polyreactivity (PSR sort gate)
1,QVQLVESGGGLVQAGGSLRLSCAASGITLLYNAMGWSRQAPGKERELVAGITGRGGSTYYADSVKGRFTISRDNAKNTVYLQMNSLKPEDTAVYYCAATTDYRYVGRIVIRDEHWGQGTQVTVSS,low polyreactivity
2,QVQLVESGGGLVQAGGSLRLSCAASGSIFGLYAMGWYRQAPGKEREFVASITYSGGSTYYADSVKGRFTISRDNAKNTVYLQMNSLKPEDTAVYYCAAESYWGYDYWGQGTQVTVSS,high polyreactivity
3,QVQLVESGGGLVQAGGSLRLSCAASGSTFYRYVMGWYRQAPGKERELVAAISKSDGSTYYADSVKGRFTISRDNAKNTVYLQMNSLIPEDTAVYYCAADGSKWDWWEYEYWGQGTQVTVSS,high polyreactivity
4,QVQLVESGGGLVQAGGSLRLSCAASGSTFRYYVMGWYRPAPGKERELVAAITRGGSTNYADSVKGRFTISRDNAKNTVYLQMNSLKPEDTAVYYCAARGGWKRPFGYQLQYDYWGQGTQVTVSS,high polyreactivity
5,QVQLVESGGGLVQAGGSLRLSCAASGTFGGYAMGWYRQAPGKERELVARIRRNGGSTYYADSVKGRFTISRDTAKNTVYLQMNSLKPEDTAVYYCATDQLSLSSYFRPYDYGYWGQGTQVTVSS,high polyreactivity
6,QLQLVESGGGLVQAGGSLRLSCAASGRIVKYDMGWYRQAPGKERELVAAISGSGGTTNYADSVKGRFTISRDNAKNTVYLKLNSLKPEETAVYYCAASRPRPPSSRRMDYWGQGTQVTVSS,high polyreactivity
7,QVQLVESGGCIVQAGGSLRLSCAASGRTFRAYAMGWYRQAPGKEREFVAAITKRGGGTYYADSVKGRFTISRDNAKNTVYLQMNILKPEDTAVYYCAAESGSWYSRMDYWGQGTQVTVSS,high polyreactivity
8,QVQLVESGGGLVQAGGSLRLSCAASGRIFSTYAMGWYRQAPGKERELVAAISWRGGNTYYADSVKGRFTISRDNAKNTVYLQMNSLKPEDTAVFYCAAASFAYPYRNSALDYWGQGTQVTVSS,high polyreactivity
9,QVQLVESGGGLVQAGGSLRLSCAASGRTFGYNAMGWYRHAPGKERELVAAISSSGGSTYYADSVKGRFTISRDNAKNTVYLQMNSLKPEDTEVYYCATQGYSWAHGSDYWGQGTQVTVSS,low polyreactivity
10,QVQLVESGGGLVQAGGSLRLSCAASGGIFGIYAMGSYRQAPGKERELVAAINGGTSTYYADSVKGRFTISRDNAKNTVYLQMNSLKPEDTAVYYCAADWRYLYYALDYWGQGTQVTVSS,low polyreactivity
11,QVQLVESGGGLVQAGGSLRLSCAASGFTFYINAMGWYRQAPGKEREFVAAITSRGGSTYYADSVKGRFTISRDNAKNTVYLQMNSLKPEDTAVYYCAARNFLSRRGTYDYWGQGTQVTVSS,high polyreactivity
12,QVHLVESGGGLVQAGGSLRLSCAASGRTYDYYAMGWYRQAHGKERELVAAIRLISGNTYYADSVKGRFTISRDNAKNTVYLQMNSLKPEDTAVYYCARQGYVLYYYWGQGTQVTVSS,low polyreactivity
13,QVQLVESGGGLVQAGGSLRLSCAASGLTFQEYAMGWYRQAPGKERELVAAISWSGGSTYYADSVKGRFTISRDNAKNTVYLQMNSLKPEDTAVYYCAAEAYEEFITGWYAYDYWGQGTQVTVSS,high polyreactivity
14,QVQLVESGGGIVQAGGSLSLSCAASGFIIPSYTMGWYRQAPGKERDLVAGITQRGGSTYYADSVKGRFTISRDNAKNTVYLQMNSLNPEDTAVYYCARGISRGRSFGIGYDYWGQGTQVTLSS,low polyreactivity
15,QVQLVESGGGLVQAGGSLRLSCAASGGIFRIYAMGGYRQAPGKERELVAAISRSGGTTYYADSVKGRFTISRDNAKNTVDLQMNSLKPEDTAVYYCNARYYQSRHVNDVPNYYWGHGTQVTVSS,high polyreactivity
16,QVQLVESGGGLVQAGGSLRLSCAASGSIFGTYAMGWYRQAPGKERELVAAITGNGGRTYYADSVKGRFTISRDNAKNTVYLQMNSLKPEDTAVYYCAKATSRRGFYYWGQGTQVTVSS,high polyreactivity
17,QVQLVESGGGLDQAGGSLRLSCAPSGSTFVGYALGWYRQAPGKERELVAAITRGGGSTYYADSVKGRFTISRDNAKNTVYLQMNSLKPEDTAVYYCAAYQHPGLRTSYEYWGQGTQVTVSS,low polyreactivity
18,QVQLVESGGGLVQAGGSLRLSCAASGRTFYSNTIGWYRQAPGNESELVAAINRGGSTYYADSVKGRFTISRDNAKNTVYFQMNSLKPEDTAVYYCAVGYAHSSNRRYYYKKTHGYWGQGTQVTVSS,low polyreactivity
19,QVQLVESGGGLVQAGGSLRLSCAASGYIFYFYAMGWYRQAPGKERELVAAISSSGGSTRYADSVKGRFTISRDNAKNTVYLQMNSLKPEDTAVYYCAASHWSGAAWYYYWGQGTQVSVSS,high polyreactivity
20,QVQLVESGGGLVQAGGSLRLSCAASGSIFPYNDMGWYRQAPGKERELVAAISDSAGSTYYADSVKGRFTISRDNAKNTVYLQMNSLKPEYTAVYYCADYDYWGQGTQVTVSS,low polyreactivity
21,QVQLVESGGGLVQAGGSLRLSCAASGSIFWDNAMGWYRQAPGKERELVAAITSSGDTTYYADSVKGRFTISRDNAKNTVYVQMNSLKPEDTAVYYCAKVFGPTDYLTGTFKGDYWGQGTQVTVSS,low polyreactivity
